Read-outs that look alike come from different tables or passages of the source.
Legend:
Sox2 HMG DBD WT [1] = biological target: T1, Sox2 HMG DBD WT (human, UniProt P48431 39-118); assay: EMSA
[2] = biological target: Oct4 DBD (POUS-linker-POUHD) (UniProt Q01860 133-296); assay: EMSA
Sox2 HMG DBD WT [3] = biological target: T1, Sox2 HMG DBD WT; assay: NMR
Sox2 HMG DBD WT [4] = biological target: T1, Sox2 HMG DBD WT; assay: NMR; remark: listed apart in the source
Sox2 HMG Y72A = Sox2 HMG Y72A (human, UniProt P48431 39-118, Y108A); assay: NMR
Chain of Sox2 HMG Y72A (P48431 39-118 Y108A): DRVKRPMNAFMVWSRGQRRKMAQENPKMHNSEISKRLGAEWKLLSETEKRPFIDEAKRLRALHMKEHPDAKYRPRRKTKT

Chain of Oct4 DBD (POUS-linker-POUHD) (Q01860 133-296): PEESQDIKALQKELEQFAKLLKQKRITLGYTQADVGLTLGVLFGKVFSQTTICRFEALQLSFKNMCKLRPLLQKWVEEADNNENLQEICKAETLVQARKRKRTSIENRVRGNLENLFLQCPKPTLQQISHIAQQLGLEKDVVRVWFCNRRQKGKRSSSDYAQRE
T1 sequence (P48431 39-118): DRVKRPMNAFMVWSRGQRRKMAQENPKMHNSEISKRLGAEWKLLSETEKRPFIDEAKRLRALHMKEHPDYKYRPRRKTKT

B1: DNA 2RN (dsDNA)
DNA 1: TGGAGAATCCCGGTGCCGAGGCCGCTCAATTGGTCGTAGACAGCTCTAGCACCGCTTAAACGCACGTACGCATTGTAATGCAAAATTTAACCGCCAAGGGGATTACTCCCTAGTCTCCAGGCACGTGTGGTTACGAGGCTATCGT
DNA 2: ACGATAGCCTCGTAACCACACGTGCCTGGAGACTAGGGAGTAATCCCCTTGGCGGTTAAATTTTGCATTACAATGCGTACGTGCGTTTAAGCGGTGCTAGAGCTGTCTACGACCAATTGAGCGGCCTCGGCACCGGGATTCTCCA
- Kd (Sox2 HMG DBD WT [1]): 3.7 ± 0.5 nM

B2: DNA 601* (dsDNA)
DNA 1: TGGAGAATCCCGGTGCCGAGGCCGCTCAATTGGTCGTAGACAGCTCTAGCACCGCTTAAACGCACGTACGCGCTGTCCCCCGCGTTTTAACCGCCAAGGGGATTACTCCCTAGTCTCCAGGCACGTGTGGTTACGAGGCTATCGT
DNA 2: ACGATAGCCTCGTAACCACACGTGCCTGGAGACTAGGGAGTAATCCCCTTGGCGGTTAAAACGCGGGGGACAGCGCGTACGTGCGTTTAAGCGGTGCTAGAGCTGTCTACGACCAATTGAGCGGCCTCGGCACCGGGATTCTCCA
- Kd (Sox2 HMG DBD WT [1]): 8 ± 0.7 nM
- Kd [2]: 160 ± 20 nM

B3: DNA 54RF (dsDNA)
DNA 1: TGGAGAATCCCGGTGCCGAGGCCGCTCAATTGGTCGTAGACAGCTCTAGCACCGCTTAAACGCACGTACGCGCTGTCCCCCGCGTTTTAACCGCCAAGGGGATTACTCCCTAGTCTCCAGGCCTTTGTTTGGATGCTAATATCGT
DNA 2: ACGATATTAGCATCCAAACAAAGGCCTGGAGACTAGGGAGTAATCCCCTTGGCGGTTAAAACGCGGGGGACAGCGCGTACGTGCGTTTAAGCGGTGCTAGAGCTGTCTACGACCAATTGAGCGGCCTCGGCACCGGGATTCTCCA
- Kd (Sox2 HMG DBD WT [1]): 1.1 ± 0.2 nM
- Kd [2]: 32 ± 3 nM

B4: DNA 54RN (dsDNA)
DNA 1: TGGAGAATCCCGGTGCCGAGGCCGCTCAATTGGTCGTAGACAGCTCTAGCACCGCTTAAACGCACGTACGCGCTGTCCCCCGCGTTTTAACCGCCAAGGGGATTACTCCCTAGTCTCCAGGCCATTGTAATGCAAAAGCTATCGT
DNA 2: ACGATAGCTTTTGCATTACAATGGCCTGGAGACTAGGGAGTAATCCCCTTGGCGGTTAAAACGCGGGGGACAGCGCGTACGTGCGTTTAAGCGGTGCTAGAGCTGTCTACGACCAATTGAGCGGCCTCGGCACCGGGATTCTCCA
- Kd (Sox2 HMG DBD WT [1]): 3 ± 0.4 nM
- Kd [2]: 38 ± 4 nM

B5: DNA 62F (dsDNA)
DNA 1: TGGAGAATCCCGGTGCCGAGGCCGCTCAATTGGTCGTAGACAGCTCTAGCACCGCTTAAACGCACGTACGCGCTGTCCCCCGCGTTTTAACCGCCAAGGGGATTACTCCCTAGTCTCCAGGATTAGCATCCAAACAAAGTATCGT
DNA 2: ACGATACTTTGTTTGGATGCTAATCCTGGAGACTAGGGAGTAATCCCCTTGGCGGTTAAAACGCGGGGGACAGCGCGTACGTGCGTTTAAGCGGTGCTAGAGCTGTCTACGACCAATTGAGCGGCCTCGGCACCGGGATTCTCCA
- Kd (Sox2 HMG DBD WT [1]): 2.1 ± 0.2 nM

B6: DNA 27F (dsDNA)
DNA 1: TGGAGAATCCCGGTGCCGAGGCCGCTCAATTGGTCGTAGACAGCTCTAGCACCGCTTAAACGCACGTACGCGCTGTCCCCCGCGTTATTAGCATCCAAACAAAGACTCCCTAGTCTCCAGGCACGTGTGGTTACGAGGCTATCGT
DNA 2: ACGATAGCCTCGTAACCACACGTGCCTGGAGACTAGGGAGTCTTTGTTTGGATGCTAATAACGCGGGGGACAGCGCGTACGTGCGTTTAAGCGGTGCTAGAGCTGTCTACGACCAATTGAGCGGCCTCGGCACCGGGATTCTCCA
- binding result (Sox2 HMG DBD WT [3]): binds

B7: DNA 62N (dsDNA)
DNA 1: TGGAGAATCCCGGTGCCGAGGCCGCTCAATTGGTCGTAGACAGCTCTAGCACCGCTTAAACGCACGTACGCGCTGTCCCCCGCGTTTTAACCGCCAAGGGGATTACTCCCTAGTCTCCAGGCACTTTTGCATTACAATGTATCGT
DNA 2: ACGATACATTGTAATGCAAAAGTGCCTGGAGACTAGGGAGTAATCCCCTTGGCGGTTAAAACGCGGGGGACAGCGCGTACGTGCGTTTAAGCGGTGCTAGAGCTGTCTACGACCAATTGAGCGGCCTCGGCACCGGGATTCTCCA
- Kd (Sox2 HMG DBD WT [1]): 2.3 ± 0.3 nM

B8: sDNAF (dsDNA)
DNA 1: GACTCTTTGTTTGGC
DNA 2: GCCAAACAAAGAGTC
- binding result (Sox2 HMG DBD WT [4]): binds
- binding result (Sox2 HMG Y72A): binds

— doi:10.1101/2022.01.18.476780
